The source of these data is patent US20110236390A1 (Janssen / Centocor, published 2011).

T1: human IL-17A (human, UniProt Q16552 24-155)
T1 sequence: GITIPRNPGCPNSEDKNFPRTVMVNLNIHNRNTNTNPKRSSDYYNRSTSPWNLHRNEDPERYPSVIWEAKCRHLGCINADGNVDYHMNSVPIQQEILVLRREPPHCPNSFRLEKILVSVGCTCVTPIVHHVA

T2: cynomolgus IL-17A (cynomolgus, UniProt Q16552 24-155 (human entry), limits assumed)
T2 construct: also called cyno IL-17A; cynoIL-17A
T2 chain: T1 sequence with T3A, P8S, N34S, I77V, N78K, P104R

T3: rhIL-17A/F heterodimer (R&D Systems) (human, UniProt Q16552 20-155; Q96PD4 31-163, limits assumed)
T3 sequence (looked up) 1: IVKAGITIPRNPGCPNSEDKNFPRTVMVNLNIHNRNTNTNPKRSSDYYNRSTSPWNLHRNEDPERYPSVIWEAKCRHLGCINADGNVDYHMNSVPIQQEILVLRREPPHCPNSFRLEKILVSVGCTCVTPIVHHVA
T3 sequence (looked up) 2: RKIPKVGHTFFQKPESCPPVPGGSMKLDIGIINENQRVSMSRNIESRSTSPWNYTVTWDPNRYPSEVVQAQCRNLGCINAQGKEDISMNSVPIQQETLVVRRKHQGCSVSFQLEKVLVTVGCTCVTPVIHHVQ

B1: mAb1926 (antibody, human IgG1, lambda, V domains shown)
VH: QVQLLESGGGLVQPGGSLRLSCAASGFTFSSYAMSWVRQAPGKGLEWVSTISMTSGFTYYADSVKGRFTISRDNSKNTLYLQMNSLRAEDTAVYYCARQLMLDVWGQGTLVTVSS
VL: QSVLTQPPSVSVAPGQTARISCSGDNLGDKYANWYQQKPGQAPVLVIYDDIDRPSGIPERFSGSNSGNTATLTISGTQAEDEADYYCGSYDFFLGMIVFGGGTKLTVLG
notes: Framework-engineered mAb; also called mAbtr1926; engineered form of MOR7700
B2: mAb7146 (antibody, human IgG1, lambda, V domains shown)
VH: B1 VH with M101T
VL: B1 VL with M96L
notes: Framework-engineered mAb; also called engineered form of MOR8160
B3: mAb6785 (antibody, human IgG1, lambda, V domains shown)
VH: B1 VH with M53L, M101T
VL: B1 VL
notes: Framework-engineered mAb; also called engineered form of MOR8302
B4: mAb5548 (antibody, human IgG1, lambda, V domains shown)
VH: B1 VH with M53L, M101T
VL: B1 VL with M96L
notes: Framework-engineered mAb
B5: Fab6468, a recombinant His6-tagged Fab of mAb6785 (Fab, V domains shown)
VH: B1 VH with M53L, M101T
VL: B1 VL
B6: mAb4538 (antibody, human IgG1, lambda, V domains shown)
VH: QVQLQQSGPGLVKPSQTLSLTCAISGDSVSSSSAAWGWIRQSPSRGLEWLGRISYRSKWYNDYAVSVKSRITINPDTSKNQFSLQLNSVTPEDTAVYYCAREVDSMYYSYFDIWGQGTLVTVSS
VL: EIVLTQSPATLSLSPGERATLSCRASQNVWAFYLAWYQQKPGQAPRLLIYGASNRATGIPARFSGSGSGTDFTLTISSLEPEDFAVYYCQQYRSTLSLTFGQGTKVEIKG
notes: Framework-engineered mAb; also called engineered form of MOR7706
B7: mAb4168 (antibody, human IgG1, lambda, V domains shown)
VH: B6 VH with M106T
VL: B6 VL with Q90T, R93Y, T95S, L96P
notes: Framework-engineered mAb; also called engineered form of MOR8103
B8: mAb732 (antibody, human IgG1, lambda, V domains shown)
VH: B6 VH
VL: B6 VL with Q90T, R93Y, T95S, L96P
notes: Framework-engineered mAb; also called engineered form of MOR7775
B9: mAb3584 (antibody, human IgG1, lambda, V domains shown)
VH: B6 VH with M106I
VL: B6 VL
notes: Framework-engineered mAb; also called engineered form of MOR8299

Residue numbers refer to the chain shown, from its start.

The first assay deals with T1, human IL-17A. Put plainly: binding ELISA, IL-17A protein coated on micro-titer plate, serial dilutions of labeled mAb1926, 37 C 2 h. (ELISA stands for enzyme-linked immunosorbent assay.)
Source text: Human, mouse and rat IL-17A proteins were coated on the micro-titer plates.
As for B1, the binding result is on record as “binds”.

The next assay concerns the target T2, cynomolgus IL-17A. Put plainly: SPR Biacore 3000, antibody captured, IL-17 in solution.
Procedure: (§1) Affinity measurements using Surface Plasmon Resonance (SPR) were performed using a Biacore 3000 optical biosensor (Biacore).
Molecule B2 had a Kd of 0.05 nM and a Stoichiometry of 2 dimers per anti-IL-17.
For B3, in that order: 0.148 nM and 2.2 dimers per anti-IL-17.
Molecule B1 returned a Kd of 0.018 nM and a Stoichiometry of 2.3 dimers per anti-IL-17.
For B4, in that order: 0.225 nM and 1.9 dimers per anti-IL-17.

Another assay deals with T2, cynomolgus IL-17A. Put plainly: SPR Biacore 3000, Fab captured, IL-17 in solution. Background: Surface plasmon resonance follows binding to a sensor surface in real time, without labels.
Procedure: as §1
B5 returned a Kd of 0.205 nM.

The target of the next assay is T2, cynomolgus IL-17A. Put plainly: cell-based or functional assay.
For the molecule B2, the “IL-6 production (NHDF), IC50” value was determined as 0.139 nM and the “IL-8 production (NHDF), IC50” value was determined as 0.14 nM.
In the same order, the values of B3 are 0.193 nM and 0.563 nM.
For the molecule B1, the “IL-6 production (NHDF), IC50” value came out at 0.067 nM.
For B6, the “IL-6 production (NHDF), IC50” value is 0.847 nM and the “IL-8 production (NHDF), IC50” value worked out at 1.75 nM.
In the same order, the values of B7 are 2.17 nM and 3.3 nM.
In the same order, the values of B8 are 2.02 nM and 12.5 nM.
B9: the “IL-6 production (NHDF), IC50” value was determined as 0.823 nM and the “IL-8 production (NHDF), IC50” value stood at 1.25 nM.

The next assay has as its target T2, cynomolgus IL-17A. Put plainly: competition ELISA: mAb against biotinylated cyno IL-17A binding to coated IL-17RA-Fc.
Procedure: Clear maxisorp plates were coated with 100 μl/well of 2.5 μg/ml human IL-17RA-Fc (R&D Systems, Minneapolis, Minn.) in 0.1 M sodium carbonate-bicarbonate buffer, pH 9.4 and incubated overnight at 4° C. […] The signal was detected with 100 μl of 1:10,000 dilution of 1 mg/ml SA-HRP (Jackson Immunoresearch, West Grove, Pa.) for 20 minutes at room temperature (RT) followed by 100 μl/well of OPD substrate (Sigma-Aldrich Corp., St. Louis, Mo.).
As to B2, the half-inhibitory concentration (IC50) is 0.067 nM.
The same measure, in the same setting: for B3 the value was 0.076 nM; for B1, 0.053 nM; for B6, 0.636 nM.
Take B7: the IC50 is 0.764 nM.
Same read-out and setting: for B8 the value was 0.463 nM; for B9, 0.489 nM.

Another assay has as its target T3, rhIL-17A/F heterodimer (R&D Systems). Put plainly: cell-based or functional assay.
Take B3: the “IL-17A/F heterodimer-induced IL-6 production by NHDF, EC50” value amounted to 2 nM.

The term Kd denotes the concentration at which binding is half-saturated. One may read the IC50 as the concentration that gives 50% inhibition. Lower therefore signals greater potency in that assay.
